Values quoted from earlier work in PMC3557855.
Each block holds one substance with its values, some of them ahead of it.

Legend:
Assay in all cases: SPR
[1] = target: PSGL-1 (Homo sapiens) (UniProt Q14242)
[2] = target: GlyCAM-1 (Mus musculus) (UniProt Q02596)
[3] = target: ESL-1 (UniProt Q61543)
Sequence of UniProt Q61543 (Q61543 28-1141): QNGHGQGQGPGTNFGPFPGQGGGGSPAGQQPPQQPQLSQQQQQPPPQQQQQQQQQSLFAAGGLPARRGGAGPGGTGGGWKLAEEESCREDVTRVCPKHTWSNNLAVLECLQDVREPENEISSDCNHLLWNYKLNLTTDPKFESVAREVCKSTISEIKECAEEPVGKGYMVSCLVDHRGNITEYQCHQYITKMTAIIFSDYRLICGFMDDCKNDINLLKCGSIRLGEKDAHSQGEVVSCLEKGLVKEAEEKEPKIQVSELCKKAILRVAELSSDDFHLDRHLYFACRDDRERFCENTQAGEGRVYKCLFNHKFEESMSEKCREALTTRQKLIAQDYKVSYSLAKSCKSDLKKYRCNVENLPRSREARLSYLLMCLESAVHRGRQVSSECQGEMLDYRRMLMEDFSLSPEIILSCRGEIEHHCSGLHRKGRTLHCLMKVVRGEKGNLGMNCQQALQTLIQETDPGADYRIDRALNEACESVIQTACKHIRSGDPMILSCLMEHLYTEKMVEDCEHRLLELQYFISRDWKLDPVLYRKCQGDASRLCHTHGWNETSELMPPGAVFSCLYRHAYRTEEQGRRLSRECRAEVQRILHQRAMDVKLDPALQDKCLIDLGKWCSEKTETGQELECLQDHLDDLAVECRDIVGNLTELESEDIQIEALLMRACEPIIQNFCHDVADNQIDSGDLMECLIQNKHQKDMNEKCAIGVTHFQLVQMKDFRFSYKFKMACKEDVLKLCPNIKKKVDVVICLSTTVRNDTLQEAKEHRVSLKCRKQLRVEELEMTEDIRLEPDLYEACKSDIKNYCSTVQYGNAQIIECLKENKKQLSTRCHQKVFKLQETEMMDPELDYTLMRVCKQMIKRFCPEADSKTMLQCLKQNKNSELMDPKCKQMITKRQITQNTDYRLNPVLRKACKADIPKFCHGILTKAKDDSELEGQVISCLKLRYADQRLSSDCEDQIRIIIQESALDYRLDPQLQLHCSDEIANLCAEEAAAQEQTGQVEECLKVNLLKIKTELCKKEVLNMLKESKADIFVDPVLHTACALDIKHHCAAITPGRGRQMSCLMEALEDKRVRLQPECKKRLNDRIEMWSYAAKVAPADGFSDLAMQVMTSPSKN

Sequence of UniProt Q02596 (Q02596 20-151): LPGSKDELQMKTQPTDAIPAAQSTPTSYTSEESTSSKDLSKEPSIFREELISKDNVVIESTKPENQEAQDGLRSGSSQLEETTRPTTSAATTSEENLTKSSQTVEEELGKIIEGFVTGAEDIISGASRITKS
Sequence of UniProt Q14242 (Q14242 42-320): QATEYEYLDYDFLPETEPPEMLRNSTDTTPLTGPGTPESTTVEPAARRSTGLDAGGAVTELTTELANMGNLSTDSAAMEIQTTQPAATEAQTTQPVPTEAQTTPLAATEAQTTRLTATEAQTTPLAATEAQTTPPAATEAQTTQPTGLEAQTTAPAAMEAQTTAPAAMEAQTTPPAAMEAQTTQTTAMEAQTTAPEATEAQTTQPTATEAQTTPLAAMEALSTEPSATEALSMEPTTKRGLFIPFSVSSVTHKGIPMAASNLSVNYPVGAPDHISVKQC

Kd [1]: 47 µM
Substance: L-selectin (from UniProt P14151)

Kd [2]: 108 µM
Substance: L-selectin (from UniProt P18337)

Kd [3]: 62 µM
Substance: E-selectin (from UniProt P16581)
